Data set [1] concerns the target T1, pT peptide (Rad 9-pT: SLEVpTEADATFYAKK) (Saccharomyces cerevisiae, UniProt P14737).
T1 construct: host or cells: chemical synthesis
As to conditions: Durocher et al. (2000); read-out: previously reported Kd by ITC; cited from earlier work. In general terms: ITC needs no label: the signal is the heat of the interaction.

A further data set deals with T2, Rad9-pT peptide (Saccharomyces cerevisiae, UniProt P14737).
T2 construct: host or cells: chemical synthesis
Briefly: Phage ELISA of phage-displayed FHA1 domains. Type of data set: binding, yeast. As to conditions: for binding to Rad9-pT peptide when phage-displayed: M13 protein III fusion, DsbA signal sequence; for binding to Rad9-pT peptide when phage-displayed with chaperones: co-expression of dsbA, dsbC, fkpA, skp and surA. The protocol:
To amplify the phage particles displaying the recombinant FHA1 variants, TG1 bacterial cells (5 mL; Stratagene) harboring the phagemid DNA were infected at mid-log (OD600nm=0.5-0.6) with M13K07 helper phage (New England Biolabs) at a multiplicity of infection (MOI) of 20 for 1 h at 37° C. at 150 rpm. Infected cells were centrifuged, and the pellet was resuspended in fresh Luria Bertani medium (LB: 10 g Tryptone, 5 g Yeast extract, and 10 g NaCl per liter) supplemented with 50 μg/mL carbenicillin and 50 μg/ml kanamycin, and phage were amplified overnight at 30° C. at 250 rpm. All of the phage ELISA steps were performed at room temperature. Biotinylated peptides (100 μL, 5 μg/mL) were immobilized on Nunc MaxiSorp flat-bottom 96 well plates (Thermo Fisher Scientific) via NeutrAvidin™ Biotin binding protein (100 μL, 10 μg/mL; Thermo Fisher Scientific) and blocked with 2% skim milk in 1×PBS (200 μL per well). After washing with Phosphate Buffered Saline (PBS: 0.14 M Sodium Chloride, 0.003 M Potassium Chloride, 0.002 M Potassium Phosphate, and 0.01 M Sodium Phosphate), the wells were incubated with the phage supernatant (100 μL of phage diluted 1:2 with PBS containing 0.1% Tween 20 (PBST)) for 1 h and washed three times with PBST. The binding phage were detected using anti-M13 antibody conjugated to horse radish peroxidase (HRP) (GE Healthcare) diluted 1:5000 with PBST. After washing away the unbound antibody, the chromogenic substrate for HRP; 2,2′-Azinobis (3-ethylbenzothiazoline-6-Sulfonic Acid) diammonium salt (Thermo Fisher Scientific), supplemented with hydrogen peroxide was added (100 μL per well), and the absorbance of the green colored complex was measured at 405 nm on POLARstar OPTIMA microtiter plate reader (BMG Labtech).
For orientation: ELISA stands for enzyme-linked immunosorbent assay.

For data set [2], the target named is T3, cognate pT peptide (Rad9-pT) (Saccharomyces cerevisiae, UniProt P14737).
T3 construct: host or cells: chemical synthesis
As to the kind of experiment: FTS assay, Tm shift in the presence of the cognate pT peptide. In kind it is binding, yeast. Here is the method: (§1) The FTS assay was performed on a MxPro-Mx3005P instrument (Stratagene) following the protocol described by Giuliani et al (Giuliani et al. (2008) Biochemistry 47, 13974-84). It is a real-time assay using the SYBR® Green experiment setting with dissociation curve. The default FRROX filter set was used with an excitation wavelength of 492 nm and emission wavelength of 610 nm. FHA1 domains diluted with PBS to 2× final concentration (i.e. 2 μM and 8 μM) were mixed with 10×SYPRO® Orange protein gel stain (Invitrogen; 5000× concentration in DMSO) to give a final dye concentration of 10×. Then, to the protein wells only, 10 μL of the dye+protein mixture was added along with 10 μL of 1×PBS buffer. In other wells, 10 μL of either the pT peptide or its non-phosphorylated form (diluted to 2× final concentration with PBS, i.e. 100 μM and 500 μM) was added to 10 μL of dye+protein mixture. The final reaction volume was 20 μL with final concentrations of 1 μM or 4 μM of FHA1 domains, 50 μM or 250 μM of pT and non-phosphorylated peptides and 5× final concentration of the SYPRO® Orange. The assay was performed in duplicate in 96 well white PCR plates (BIO-Rad) covered with optically clear Microseal® ‘B’ Film (Bio-Rad) and heated from 25° C. to 95° C. and the melting curve was obtained with fluorescence (R) values plotted on the Y-axis and increasing temperature (° C.) on the X-axis. The mid-point of the curve gives the melting temperature (Tm), which shifts to a higher temperature in the presence of the pT peptide.
(§2) The Tm values of FHA1 variants were determined by FTS assay (Giuliani et al. (2008) Biochemistry 47, 13974-84). A representative Tm curve for the G2 variant at 1 μM concentration is shown (solid squares), alone and in the presence of the pT peptide (FIG. 11). […] The Tm values of the thermally stable variants (along with WT and D2 variant) at 1 μM and 4 μM concentration, along with the Tm shift in the presence of two different concentrations (50 μM and 250 μM) of the pT peptide, are listed in Table S3.

Data set [3] in a line: Fluorescence-based thermal shift (FTS) assay, melting temperature. Type of data set: physicochemical. To be noted: mid-point of melting curve. Here is the method: as §1
To evaluate the thermal stability of the D2 variant, phage particles displaying the D2 variant were heated at various temperatures (30° C., 37° C., 50° C., 60° C., 70° C., 80° C., and 95° C.) prior to incubation with the cognate pT peptide (Rad9-pT) and the non-phosphorylated form of the same peptide (Rad9-T). […] (FIG. 8). The D2 variant (purified six-his tagged protein) was mixed with SYPRO orange dye with or without the Rad9-pT-containing peptide and heated from 25° C. to 95° C. in a real-time PCR experiment known as the Fluorescence-based thermal shift (FTS) assay^36. In this assay, initially, the fluorescence of SYPRO orange dye is quenched in the aqueous environment of a folded protein, but as the protein starts to unfold upon heating, the dye interacts with the hydrophobic core of the protein and its fluorescence increases. Therefore, an increase in fluorescence of the dye is directly proportional to protein unfolding, until a temperature (referred to as Tm here) is reached at which the dye fluorescence decreases due to aggregation and precipitation of the protein. The melting temperature (Tm) of the D2 variant was determined by fluorescence-based thermal shift (FTS) assay to be approximately 5° C. lower than the Tm of the WT FHA1 domain. To improve the thermal stability of the D2 variant, affinity selection was carried out by heating the phage library displaying D2 variants at 50° C. prior to incubation with the pT peptide ligand to favor the isolation of variants that remained folded and functional above 50° C.
as §2
The Tm (temperature at which 50% of the protein is unfolded) of the protein domain variants was determined by a fluorescence-based thermal shift assay (Giuliani et al. (2008) Biochemistry 47, 13974-84). The proteins were mixed with SYPRO orange dye, and heated from 25° C. to 95° C. on a real-time thermocycler. […]

B1: WT: N-terminal FHA1 domain of S. cerevisiae Rad53 protein kinase, residues 1-170 (SEQ ID NO:7) (protein, listed as Saccharomyces cerevisiae)
chain: MENITQPTQQSTQATQRFLIEKFSQEQIGENIVCRVICTTGQIPIRDLSADISQVLKEKRSIKKVWTFGRNPACDYHLGNISRLSNKHFQILLGEDGNLLLNDISTNGTWLNGQKVEKNSNQLLSQGDEITVGVGVESDILSLVIFINDKFKQCLEQNKVDRIRSNLKNT
B1: the Kd (usually the equilibrium constant for the complex coming apart) in data set [1] is 530 nM. Also, the “binding to Rad9-pT peptide when phage-displayed” value in the data set with Rad9-pT peptide is given as “non-functional”; with Rad9-pT peptide (listed as WT FHA1 domain), “did not bind”; with Rad9-pT peptide (listed as wild-type (WT) FHA1 domain), “no binding was detected”. Also, the entries for the “binding to Rad9-pT peptide when phage-displayed via TorA signal sequence” value in the data set with Rad9-pT peptide and with Rad9-pT peptide (listed as WT FHA1 domain) were “only detected when the phage particles were concentrated 50 times” and “only partially restored”, respectively. The results for the “binding to Rad9-pT peptide when phage-displayed with chaperones” value with Rad9-pT peptide and with Rad9-pT peptide (listed as WT FHA1 domain) were “remained nonfunctional” and “did not restore the activity”, respectively. Besides, the “Tm shift (° C.) in the presence of pT peptide” value in data set [2] (50 μM pT peptide, protein 1 μM) was determined as 1.7 °C; in data set [2] (50 μM pT peptide, protein 4 μM), 1.95 °C; in data set [2] (250 μM pT peptide, protein 1 μM) it was 3.8 °C; in data set [2] (250 μM pT peptide, protein 4 μM), 3.55 °C. In addition, the “Tm (° C.)” value came to 66.7 °C in data set [3] (protein concentration 1 μM) and 66.4 °C in data set [3] (protein concentration 4 μM).

Source of the values: patent US9097721B2, “Compositions comprising engineered phosphothreonine affinity reagents, methods of making, and methods of use” (The Board of Trustees of the University of Illinois, priority 2012, dated 2015).
